# In PMC13345917, “EasyGrid: a versatile platform for automated cryo-EM sample preparation and quality control” (Nature Methods, 2026):
# B1: KR2 rhodopsin (NaR gene from Krokinobacter eikastus) (natural protein)
# chain: MTQELGNANFENFIGATEGFSEIAYQFTSHILTLGYAVMLAGLLYFILTIKNVDKKFQMSNILSAVVMVSAFLLLYAQAQNWTSSFTFNEEVGRYFLDPSGDLFNNGYRYLNWLIDVPMLLFQILFVVSLTTSKFSSVRNQFWFSGAMMIITGYIGQFYEVSNLTAFLVWGAISSAFFFHILWVMKKVINEGKEGISPAGQKILSNIWILFLISWTLYPGAYLMPYLTGVDGFLYSEDGVMARQLVYTIADVSSKVIYGVLLGNLAITLSKNKELVEANS
# notes: KR2 rhodopsin, NaR gene from Krokinobacter eikastus, codon-optimised for E. coli; also called KR2 bacterial rhodopsin; source: E. coli C41, pET15b, purified in DDM (Ni-NTA, Superdex 200 Increase)
# Biological target: the molecule itself
# Assay: cryo-EM structure; single-particle analysis of KR2 rhodopsin in 50 mM Tris-HCl pH 8.0, 0.1 M NaCl, 0.03% DDM; grids made with EasyGrid at 4 °C; non-symmetrised ab initio model, then refinement with imposed C5 symmetry
protein,measurement,value
B1,stoichiometry N,5
